Assay [1] concerns the target human complement component C5 (purified) (human) (UniProt P01031). Kind of assay: cell-based or functional assay.
For assay [2] the target is unchanged. As to the kind of experiment: plate-bound C3, C5 20 µg/ml with 5G1.1 Fab 20 µg/ml, bound C5 detected with N19/8; competitor C3.
For assay [3] the target is unchanged. As to the kind of experiment: plate-bound C4, C5 20 µg/ml with 5G1.1 Fab 20 µg/ml, bound C5 detected with N19/8; competitor C4.
The target is the same in assay [4]. As to the kind of experiment: solution equilibrium with C5, free antibody measured by ELISA (Friguet method), Scatchard analysis. (In general: ELISA stands for enzyme-linked immunosorbent assay.)

Chain of UniProt P01031 (P01031 19-673 T389I limits assumed, chain 1 of 2): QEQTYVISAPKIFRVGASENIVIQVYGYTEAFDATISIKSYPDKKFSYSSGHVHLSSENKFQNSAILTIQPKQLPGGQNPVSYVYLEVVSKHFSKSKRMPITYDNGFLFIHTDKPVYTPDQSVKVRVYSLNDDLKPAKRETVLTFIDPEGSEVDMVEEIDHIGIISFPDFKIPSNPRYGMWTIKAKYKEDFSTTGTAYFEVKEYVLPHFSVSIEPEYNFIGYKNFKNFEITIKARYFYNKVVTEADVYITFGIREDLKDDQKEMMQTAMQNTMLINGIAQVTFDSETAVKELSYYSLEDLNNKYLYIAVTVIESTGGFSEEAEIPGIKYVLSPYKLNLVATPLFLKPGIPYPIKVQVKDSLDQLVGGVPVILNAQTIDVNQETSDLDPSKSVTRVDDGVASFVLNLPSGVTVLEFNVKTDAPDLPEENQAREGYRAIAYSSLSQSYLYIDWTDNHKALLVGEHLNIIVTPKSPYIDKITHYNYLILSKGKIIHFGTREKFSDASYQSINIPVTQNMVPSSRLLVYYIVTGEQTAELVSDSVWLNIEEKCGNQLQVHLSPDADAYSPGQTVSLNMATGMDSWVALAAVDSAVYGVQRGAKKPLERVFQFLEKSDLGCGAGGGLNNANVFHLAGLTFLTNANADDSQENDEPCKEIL
Chain of UniProt P01031 (P01031 678-1676 V802I limits assumed, chain 2 of 2): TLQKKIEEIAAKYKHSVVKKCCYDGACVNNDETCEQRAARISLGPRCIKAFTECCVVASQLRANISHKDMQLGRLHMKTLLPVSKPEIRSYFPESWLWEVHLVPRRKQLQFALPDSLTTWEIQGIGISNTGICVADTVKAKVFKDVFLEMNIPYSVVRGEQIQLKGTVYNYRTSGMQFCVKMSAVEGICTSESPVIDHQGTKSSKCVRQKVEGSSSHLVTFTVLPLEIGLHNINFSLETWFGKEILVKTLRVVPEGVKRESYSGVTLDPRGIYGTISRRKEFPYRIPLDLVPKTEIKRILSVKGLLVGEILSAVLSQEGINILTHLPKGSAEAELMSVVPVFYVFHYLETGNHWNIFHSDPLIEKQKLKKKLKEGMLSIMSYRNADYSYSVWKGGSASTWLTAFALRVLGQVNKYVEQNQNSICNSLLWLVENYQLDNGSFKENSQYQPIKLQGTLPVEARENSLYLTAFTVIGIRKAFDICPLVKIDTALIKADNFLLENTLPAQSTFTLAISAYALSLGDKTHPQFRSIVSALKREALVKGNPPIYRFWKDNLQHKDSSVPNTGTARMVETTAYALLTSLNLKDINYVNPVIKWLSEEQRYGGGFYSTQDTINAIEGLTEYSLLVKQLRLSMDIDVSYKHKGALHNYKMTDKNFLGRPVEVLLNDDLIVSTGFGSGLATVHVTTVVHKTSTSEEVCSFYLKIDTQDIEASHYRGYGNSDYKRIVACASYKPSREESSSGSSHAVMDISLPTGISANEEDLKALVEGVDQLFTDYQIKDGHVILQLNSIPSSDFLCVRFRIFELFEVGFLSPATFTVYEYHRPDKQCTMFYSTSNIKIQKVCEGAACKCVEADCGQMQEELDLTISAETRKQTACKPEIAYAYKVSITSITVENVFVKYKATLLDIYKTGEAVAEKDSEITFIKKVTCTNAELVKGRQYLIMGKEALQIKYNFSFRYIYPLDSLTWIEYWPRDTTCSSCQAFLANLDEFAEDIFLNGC

In assay [1], “5G1.1 Fab (derived from 5G1.1 by conventional papain digestion)” displayed a concentration that completely blocks C5a generation of 0.06 to 0.08 µM and a concentration that completely blocks C5b-9-mediated hemolysis in 20% human serum of 0.06 to 0.08 µM. For the same substance, the percent inhibition of C5 binding to C3 in assay [2] lay within 60 to 90%. For the same substance, the percent inhibition of C5 binding to C4 in assay [3] lay within 60 to 90%.
As for “m5G1.1 scFv (non-humanized murine 5G1.1 scFv, 5G1.1M1scFv)”, in assay [1], the concentration that completely blocks C5a generation is 0.15 µM and the concentration that completely blocks C5b-9-mediated hemolysis in 20% human serum stood at 0.15 µM.
In the case of “chimeric N19/8 Fab (N19-8 VL/human kappa constant region and N19-8 VH/human IgG1 Fd)”, the blocking of complement hemolytic activity and of C5a generation in assay [1] was 50%.
Consider “5G1.1 monoclonal antibody (native murine anti-human C5 mAb, produced by hybridoma 5G1.1, ATCC HB-11625)”, for which, in assay [1], the concentration that blocks serum hemolytic activity, 20% v/v human serum turned out to be 6.25 µg/mL; the concentration that completely blocks C5a generation is 0.06 to 0.08 µM; the concentration that completely blocks C5b-9-mediated hemolysis in 20% human serum was in the range of 0.06 to 0.08 µM; the molar ratio at which serum hemolytic activity is blocked, 20% v/v human serum (molar ratio 5G1.1/C5) was 0.5. Besides, the serum hemolytic activity (chicken erythrocyte hemolysis assay, human serum) (molar ratio antibody/C5) in assay [1] is 0.5. Moreover, in assay [4], the Kd (as a rule, the constant that tells how readily two partners part at equilibrium) was 0.03 nM.
